Reference: PMC11906750
Like-named read-outs stand apart in the source and are kept apart here.

Tests used:
Experiment in all cases: FRET or BRET
[1] = molecular target: HC-Pro^Tu-CFP (turnip mosaic virus)
[2] = molecular target: HC-Pro^Tu-K-CFP (turnip mosaic virus)
[3] = molecular target: HC-Pro^Tu-CFP (turnip mosaic virus); remark: listed apart in the source
[4] = molecular target: HC-Pro^Tu-K-CFP (turnip mosaic virus); remark: listed apart in the source

HC-Pro^Tu-CFP (natural protein)
FRET efficiency [1]: 70%

HC-Pro^Tu-K-CFP (natural protein)
FRET efficiency [2]: 72%

B1: YFP-HEN1 (enzyme)
chain: MAGGGKHTPTPKAIIHQKFGAKASYTVEEVHDSSQSGCLGLAIPQKGPCLYRCHLQLPEFSVVSNVFKKKKDSEQSAAELALDKLGIRPQNDDLTVDEARDEIVGRIKYIFSDEFLSAEHPLGAHLRAALRRDGERCGSVPVSVIATVDAKINSRCKIINPSVESDPFLAISYVMKAAAKLADYIVASPHGLRRKNAYPSEIVEALATHVSDSLHSREVAAVYIPCIDEEVVELDTLYISSNRHYLDSIAERLGLKDGNQVMISRMFGKASCGSECRLYSEIPKKYLDNSSDASGTSNEDSSHIVKSRNARASYICGQDIHGDAILASVGYRWKSDDLDYDDVTVNSFYRICCGMSPNGIYKISRQAVIAAQLPFAFTTKSNWRGPLPREILGLFCHQHRLAEPILSSSTAPVKSLSDIFRSHKKLKVSGVDDANENLSRQKEDTPGLGHGFRCEVKIFTKSQDLVLECSPRKFYEKENDAIQNASLKALLWFSKFFADLDVDGEQSCDTDDDQDTKSSSPNVFAAPPILQKEHSSESKNTNVLSAEKRVQSITNGSVVSICYSLSLAVDPEYSSDGESPREDNESNEEMESEYSANCESSVELIESNEEIEFEVGTGSMNPHIESEVTQMTVGEYASFRMTPPDAAEALILAVGSDTVRIRSLLSERPCLNYNILLLGVKGPSEERMEAAFFKPPLSKQRVEYALKHIRESSASTLVDFGCGSGSLLDSLLDYPTSLQTIIGVDISPKGLARAAKMLHVKLNKEACNVKSATLYDGSILEFDSRLHDVDIGTCLEVIEHMEEDQACEFGEKVLSLFHPKLLIVSTPNYEFNTILQRSTPETQEENNSEPQLPKFRNHDHKFEWTREQFNQWASKLGKRHNYSVEFSGVGGSGEVEPGFASQIAIFRREASSVENVAESSMQPYKVIWEWKKEDVEKKKTDL
FRET efficiency [3]: 55%

B2: YFP-ATG8a (natural protein)
chain: MAKSSFKISNPLEARMSESSRIREKYPDRIPVIVEKAGQSDVPDIDKKKYLVPADLTVGQFVYVVRKRIKLGAEKAIFVFVKNTLPPTAALMSAIYEEHKDEDGFLYMTYSGENTFG
FRET efficiency [3]: 30% | FRET efficiency [4]: 30%
